# Assay results as given in article PMC12629592, “MCAK recognizes the nucleotide-dependent feature at growing microtubule ends” (eLife, 2025).
# B1: GFP-MCAK (mitotic centromere-associated kinesin, wild type) (enzyme, UniProt Q99661 1-725, looked up)
# chain: MAMDSSLQARLFPGLAIKIQRSNGLIHSANVRTVNLEKSCVSVEWAEGGATKGKEIDFDDVAAINPELLQLLPLHPKDNLPLQENVTIQKQKRRSVNSKIPAPKESLRSRSTRMSTVSELRITAQENDMEVELPAAANSRKQFSVPPAPTRPSCPAVAEIPLRMVSEEMEEQVHSIRGSSSANPVNSVRRKSCLVKEVEKMKNKREEKKAQNSEMRMKRAQEYDSSFPNWEFARMIKEFRATLECHPLTMTDPIEEHRICVCVRKRPLNKQELAKKEIDVISIPSKCLLLVHEPKLKVDLTKYLENQAFCFDFAFDETASNEVVYRFTARPLVQTIFEGGKATCFAYGQTGSGKTHTMGGDLSGKAQNASKGIYAMASRDVFLLKNQPCYRKLGLEVYVTFFEIYNGKLFDLLNKKAKLRVLEDGKQQVQVVGLQEHLVNSADDVIKMIDMGSACRTSGQTFANSNSSRSHACFQIILRAKGRMHGKFSLVDLAGNERGADTSSADRQTRMEGAEINKSLLALKECIRALGQNKAHTPFRESKLTQVLRDSFIGENSRTCMIATISPGISSCEYTLNTLRYADRVKELSPHSGPSGEQLIQMETEEMEACSNGALIPGNLSKEEEELSSQMSSFNEAMTQIRELEEKAMEELKEIIQQGPDWLELSEMTEQPDYDLETFVNKAESALAQQAKHFSALRDVIKALRLAMQLEEQASRQISSKKRPQ
# notes: MCAK (mitotic centromere-associated kinesin, kinesin-13); GFP-MCAK monomer printed as 110 kDa; Dimer by size-exclusion chromatography; Used with 1 mM ATP, AMPPNP, ADP or without nucleotide (APO); Purification adapted from Helenius et al., 2006; The printed residue numbers (K524, V298, T537) and the 110 kDa mass fit whole human MCAK (surmised); also called MCAK‧ATP; MCAK‧AMPPNP; source: Sf9, …
# Assays:
# [1] = target: tubulin from porcine brain, polymerised into microtubules (porcine) (UniProt P02550); assay: single-molecule TIRF microscopy; single-molecule localisation at growing microtubule ends (tubulin 12 μM): 1 nM GFP-MCAK with 1 mM ATP, 10 nM EB1-GFP or 1 nM XMAP215-GFP, each alone; apparent constants
# [2] = target: the molecule itself; assay: SEC; Superose 6 Increase 5/150 GL; BRB80 with 50 mM KCl and 1 mM ATP
# [3] = target: tubulin from porcine brain, polymerised into microtubules (porcine) (UniProt P02550); assay: single-molecule TIRF microscopy; binding events on the lattice of dynamic microtubules (tubulin 16 μM); GFP-MCAK with 1 mM AMPPNP
# [4] = target: tubulin from porcine brain, polymerised into microtubules (porcine) (UniProt P02550); assay: single-molecule TIRF microscopy; binding events at the minus-ends of dynamic microtubules; GFP-MCAK, 1 mM ATP; BRB80 + 50 mM KCl, 35°C; apparent constants, per tubulin dimer
# [5] = target: tubulin from porcine brain, polymerised into microtubules (porcine) (UniProt P02550); assay: single-molecule TIRF microscopy; binding events at the growing plus-end of dynamic microtubules (tubulin 16 μM); GFP-MCAK with 1 mM ADP; apparent constants, per tubulin dimer
# [6] = target: tubulin from porcine brain, polymerised into microtubules (porcine) (UniProt P02550); assay: single-molecule TIRF microscopy; binding events at the growing plus-end of dynamic microtubules (tubulin 16 μM); GFP-MCAK with 1 mM AMPPNP; apparent constants, per tubulin dimer
# [7] = target: tubulin from porcine brain, polymerised into microtubules (porcine) (UniProt P02550); assay: single-molecule TIRF microscopy; binding events at the growing plus-end of dynamic microtubules (tubulin 16 μM); GFP-MCAK without nucleotide (APO); apparent constants, per tubulin dimer
# [8] = target: tubulin from porcine brain, polymerised into microtubules (porcine) (UniProt P02550); assay: single-molecule TIRF microscopy; single-molecule localisation at growing microtubule ends (tubulin 12 μM): 1 nM GFP-MCAK with 1 mM ATP, 10 nM EB1-GFP or 1 nM XMAP215-GFP, each alone; apparent constants; remark: listed apart in the source
# [9] = target: tubulin from porcine brain, polymerised into microtubules (porcine) (UniProt P02550); assay: single-molecule TIRF microscopy; binding events on the lattice of dynamic microtubules (tubulin 16 μM) grown from immobilised GMPCPP seeds; 10 nM GFP-MCAK (10 nM K524A, 30 nM V298S); 1 mM ATP; BRB80 + 50 mM KCl, 35°C; apparent constants, per tubulin dimer
# [10] = target: tubulin from porcine brain, polymerised into microtubules (porcine) (UniProt P02550); assay: single-molecule TIRF microscopy; binding events at the growing plus-end (end region 162 nm FWHM) of dynamic microtubules (tubulin 16 μM) grown from immobilised GMPCPP seeds; 10 nM GFP-MCAK (10 nM K524A, 30 nM V298S); 1 mM ATP; BRB80 + 50 mM KCl, 2 mM GTP, 35°C; apparent constants, per tubulin dimer
molecule,measurement,setting,value
EB1-GFP (from UniProt Q15691 1-268) (natural protein),Kd,[1],722 µM
B1,stoichiometry N,[2],2
same,dwell time,[3],1.46 s
same,Kd,[4],40 µM
same,RE/L (kon at the end over kon on the lattice),[4],13
same,Kd,[5],163 µM
same,RE/L (kon at the plus-end over kon on the lattice),[5],2
same,dwell time,[5],0.46 s
same,Kd,[6],61 µM
same,RE/L (kon at the plus-end over kon on the lattice),[6],11
same,dwell time,[6],3.32 s
same,Kd,[7],1.8 µM
same,RE/L (kon at the plus-end over kon on the lattice),[7],2
same,dwell time,[7],1.89 s
same,dwell time of distally distributed molecules at the growing end,[8],0.8 s
same,dwell time of proximally distributed molecules at the growing end,[8],0.7 s
same,Kd,[9],1060 µM
same,dwell time,[9],0.62 s
same,kon,[9],2800 M⁻¹ s⁻¹
same,Kd,[10],69 µM
same,dwell time,[10],0.75 s
same,"effective dissociation constant (the microtubule end taken as one multivalent receptor, end length 160 nm)",[10],260 nM
same,kon,[10],22600 M⁻¹ s⁻¹
